Source: paper PMC9482650, “Quantitative fragmentomics allow affinity mapping of interactomes” (Nature Communications, 2022)

Columns and labels:
Experiment in all cases: holdup assay
Design in all cases: key: below the threshold = too weak to quantify, mostly under pKd 3.1 to 4
Settings in all cases: plain residues with an end cap or a label only (N-terminal biotin on a linker: ado-ado)
TJP1_2, Q07157 = target: TJP1_2, Q07157
HTRA3, P83110 = target: T1, HTRA3, P83110
T1 sequence (P83110 354-453, limits assumed, looked up): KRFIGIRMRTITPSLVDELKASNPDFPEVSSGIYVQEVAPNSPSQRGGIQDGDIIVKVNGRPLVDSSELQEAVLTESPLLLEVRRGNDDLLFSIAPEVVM

ARHGEF12, Q9NZN5-2 = target: ARHGEF12, Q9NZN5-2
Chain of ARHGEF12, Q9NZN5-2 (Q9NZN5 other isoform, or with tags, fused parts or gaps): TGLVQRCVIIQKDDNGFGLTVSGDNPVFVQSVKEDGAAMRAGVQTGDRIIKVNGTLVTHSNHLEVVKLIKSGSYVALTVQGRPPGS

PARD3_3, Q8TEW0 = target: PARD3_3, Q8TEW0
Chain of PARD3_3, Q8TEW0 (Q8TEW0 582-685): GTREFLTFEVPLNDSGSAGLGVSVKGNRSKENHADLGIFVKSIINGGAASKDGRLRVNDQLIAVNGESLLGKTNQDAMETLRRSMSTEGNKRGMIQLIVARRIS

SNTG2, Q9NY99 = target: T2, SNTG2, Q9NY99
T2 sequence (Q9NY99 68-166, limits assumed, looked up): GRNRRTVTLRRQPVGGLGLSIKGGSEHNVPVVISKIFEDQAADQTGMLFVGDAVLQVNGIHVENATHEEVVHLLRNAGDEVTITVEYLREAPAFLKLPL

HTRA4, P83105 = target: T3, HTRA4, P83105
T3 sequence (P83105 378-476, limits assumed, looked up): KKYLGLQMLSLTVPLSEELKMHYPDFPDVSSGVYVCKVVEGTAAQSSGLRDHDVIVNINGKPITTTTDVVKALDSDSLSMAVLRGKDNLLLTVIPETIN

NOS1, P29475 = target: NOS1, P29475
Chain of NOS1, P29475 (P29475 9-101): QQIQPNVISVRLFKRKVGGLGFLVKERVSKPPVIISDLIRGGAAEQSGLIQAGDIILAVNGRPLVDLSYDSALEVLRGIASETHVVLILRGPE

DLG2_2, Q15700 = target: DLG2_2, Q15700
Chain of DLG2_2, Q15700 (Q15700 189-283): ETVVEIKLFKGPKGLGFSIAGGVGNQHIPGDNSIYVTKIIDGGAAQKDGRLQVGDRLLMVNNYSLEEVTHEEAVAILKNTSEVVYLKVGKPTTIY

MAST1, Q9Y2H9 = target: MAST1, Q9Y2H9
Chain of MAST1, Q9Y2H9 (Q9Y2H9 962-1065): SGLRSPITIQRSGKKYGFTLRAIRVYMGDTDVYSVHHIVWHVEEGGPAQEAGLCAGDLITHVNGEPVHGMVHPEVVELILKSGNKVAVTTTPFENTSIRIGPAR

SNTG1, Q9NSN8 = target: T4, SNTG1, Q9NSN8
T4 sequence (Q9NSN8 52-150, limits assumed, looked up): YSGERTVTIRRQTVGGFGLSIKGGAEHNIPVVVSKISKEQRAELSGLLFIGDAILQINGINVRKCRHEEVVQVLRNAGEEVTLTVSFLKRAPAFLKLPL

MPP7, Q5T2T1 = target: T5, MPP7, Q5T2T1
T5 sequence (Q5T2T1 134-230, limits assumed, looked up): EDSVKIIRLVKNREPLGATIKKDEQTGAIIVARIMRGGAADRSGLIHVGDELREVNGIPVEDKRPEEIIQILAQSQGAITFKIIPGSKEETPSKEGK

SIPA1L2, Q9P2F8 = target: T6, SIPA1L2, Q9P2F8
T6 sequence (Q9P2F8 945-1036, limits assumed, looked up): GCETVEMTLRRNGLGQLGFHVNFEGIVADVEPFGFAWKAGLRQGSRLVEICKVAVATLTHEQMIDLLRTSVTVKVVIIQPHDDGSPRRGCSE

PARD3B_1, Q8TEW8 = target: T7, PARD3B_1, Q8TEW8
T7 sequence (Q8TEW8 196-299, limits assumed, looked up): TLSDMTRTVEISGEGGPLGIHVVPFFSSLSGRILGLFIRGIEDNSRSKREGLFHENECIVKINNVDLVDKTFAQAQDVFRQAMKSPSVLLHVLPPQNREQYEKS

SYNJ2BP, P57105 = target: T8, SYNJ2BP, P57105
T8 sequence (P57105 8-110, limits assumed, looked up): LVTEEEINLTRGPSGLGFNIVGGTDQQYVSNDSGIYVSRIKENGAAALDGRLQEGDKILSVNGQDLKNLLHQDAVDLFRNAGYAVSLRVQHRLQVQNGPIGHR

Inadl_4, Q8NI35 = target: Inadl_4, Q8NI35
Chain of Inadl_4, Q8NI35 (Q8NI35 547-651): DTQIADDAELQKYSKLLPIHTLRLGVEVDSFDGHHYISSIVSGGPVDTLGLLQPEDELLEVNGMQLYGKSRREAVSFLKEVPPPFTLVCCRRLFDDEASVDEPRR

NHERF2_2, Q15599 = target: NHERF2_2, Q15599
Chain of NHERF2_2, Q15599 (Q15599 142-238): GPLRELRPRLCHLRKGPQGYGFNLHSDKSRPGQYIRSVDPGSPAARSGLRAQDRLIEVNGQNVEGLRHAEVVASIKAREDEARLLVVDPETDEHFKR

NHERF4_1, Q86UT5-2 = target: NHERF4_1, Q86UT5-2
Chain of NHERF4_1, Q86UT5-2 (Q86UT5 other isoform, or with tags, fused parts or gaps): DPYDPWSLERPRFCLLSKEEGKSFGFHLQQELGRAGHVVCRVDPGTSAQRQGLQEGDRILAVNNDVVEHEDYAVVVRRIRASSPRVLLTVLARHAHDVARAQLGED

ARHGEF11, O15085 = target: T9, ARHGEF11, O15085
T9 sequence (O15085 42-136, limits assumed, looked up): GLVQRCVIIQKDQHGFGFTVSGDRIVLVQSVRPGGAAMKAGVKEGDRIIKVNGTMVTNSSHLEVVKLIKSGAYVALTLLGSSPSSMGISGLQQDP

LNX2_3, Q8N448 = target: T10, LNX2_3, Q8N448
T10 sequence (Q8N448 463-564, limits assumed, looked up): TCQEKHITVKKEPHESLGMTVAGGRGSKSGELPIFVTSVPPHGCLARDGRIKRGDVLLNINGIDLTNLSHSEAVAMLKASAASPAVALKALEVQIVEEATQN

MAGI2_5, Q86UL8 = target: MAGI2_5, Q86UL8
Chain of MAGI2_5, Q86UL8 (Q86UL8 915-1017): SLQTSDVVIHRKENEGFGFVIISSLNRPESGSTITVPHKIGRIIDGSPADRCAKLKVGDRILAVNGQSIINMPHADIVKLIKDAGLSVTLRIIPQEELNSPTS

SCRIB_2, Q14160 = target: SCRIB_2, Q14160
Chain of SCRIB_2, Q14160 (Q14160 857-960): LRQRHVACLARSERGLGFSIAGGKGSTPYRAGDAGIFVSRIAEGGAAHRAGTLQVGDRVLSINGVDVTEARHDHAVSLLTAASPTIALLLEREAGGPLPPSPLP

Inadl_3, Q8NI35 = target: Inadl_3, Q8NI35
Chain of Inadl_3, Q8NI35 (Q8NI35 359-469): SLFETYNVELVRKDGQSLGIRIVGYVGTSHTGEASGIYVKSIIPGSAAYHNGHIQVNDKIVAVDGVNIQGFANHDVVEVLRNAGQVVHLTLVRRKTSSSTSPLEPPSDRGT

PCLO, Q9Y6V0 = target: T11, PCLO, Q9Y6V0
T11 sequence (Q9Y6V0 4491-4600, limits assumed, looked up): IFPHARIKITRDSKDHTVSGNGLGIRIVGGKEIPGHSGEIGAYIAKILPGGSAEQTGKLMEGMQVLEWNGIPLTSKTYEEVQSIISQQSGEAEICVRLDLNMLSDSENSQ

SNTA1, Q13424 = target: T12, SNTA1, Q13424
T12 sequence (Q13424 82-180, limits assumed, looked up): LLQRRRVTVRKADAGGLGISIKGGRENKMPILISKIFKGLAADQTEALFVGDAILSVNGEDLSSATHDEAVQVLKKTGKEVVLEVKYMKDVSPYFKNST

IL16_1, Q14005 = target: IL16_1, Q14005
Chain of IL16_1, Q14005 (Q14005 210-306): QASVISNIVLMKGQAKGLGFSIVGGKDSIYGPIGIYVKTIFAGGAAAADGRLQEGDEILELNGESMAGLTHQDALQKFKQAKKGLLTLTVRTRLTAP

Inadl_9, Q8NI35 = target: Inadl_9, Q8NI35
Chain of Inadl_9, Q8NI35 (Q8NI35 1530-1615): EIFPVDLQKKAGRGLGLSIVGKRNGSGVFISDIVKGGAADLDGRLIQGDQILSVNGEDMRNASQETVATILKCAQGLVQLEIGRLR

Chain of TJP1_2, Q07157 (Q07157 181-274): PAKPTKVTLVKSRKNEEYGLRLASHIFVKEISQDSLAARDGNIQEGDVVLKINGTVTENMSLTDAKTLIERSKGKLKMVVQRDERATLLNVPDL

pKd (TJP1_2, Q07157)	pKd (HTRA3, P83110)	pKd (ARHGEF12, Q9NZN5-2)	pKd (PARD3_3, Q8TEW0)	pKd (SNTG2, Q9NY99)	pKd (HTRA4, P83105)	pKd (NOS1, P29475)	pKd (DLG2_2, Q15700)	pKd (MAST1, Q9Y2H9)	pKd (SNTG1, Q9NSN8)	pKd (MPP7, Q5T2T1)	pKd (SIPA1L2, Q9P2F8)	pKd (PARD3B_1, Q8TEW8)	pKd (SYNJ2BP, P57105)	pKd (Inadl_4, Q8NI35)	pKd (NHERF2_2, Q15599)	pKd (NHERF4_1, Q86UT5-2)	pKd (ARHGEF11, O15085)	pKd (LNX2_3, Q8N448)	pKd (MAGI2_5, Q86UL8)	also measured	Binder
below the threshold	below the threshold	below the threshold	below the threshold	below the threshold	3.8	below the threshold	below the threshold	4.21	below the threshold	below the threshold	below the threshold	below the threshold	below the threshold	below the threshold	4.27	3.92	3.7	below the threshold	below the threshold	pKd (SCRIB_2, Q14160): below the threshold; pKd (Inadl_3, Q8NI35): below the threshold; pKd (PCLO, Q9Y6V0): below the threshold; pKd (SNTA1, Q13424): below the threshold; pKd (IL16_1, Q14005): below the threshold; pKd (Inadl_9, Q8NI35): below the threshold	DTTVPESEDL [MYOZ2, Q9NPC6]
below the threshold	below the threshold	below the threshold	below the threshold	below the threshold	below the threshold	below the threshold	below the threshold	3.61	below the threshold	below the threshold	below the threshold	3.65	below the threshold	below the threshold	below the threshold	4.21	below the threshold	below the threshold	below the threshold	pKd (SCRIB_2, Q14160): below the threshold; pKd (Inadl_3, Q8NI35): below the threshold; pKd (PCLO, Q9Y6V0): below the threshold; pKd (SNTA1, Q13424): below the threshold; pKd (IL16_1, Q14005): below the threshold; pKd (Inadl_9, Q8NI35): below the threshold	SKSNFGSEPL [KIF17, Q9P2E2]
below the threshold	below the threshold	4.77	below the threshold	3.98	4.36	3.74	4.9	4.8	4.68	below the threshold	below the threshold	below the threshold	4.75	below the threshold	3.89	3.89	5.09	below the threshold	4.47	pKd (SCRIB_2, Q14160): 4.28; pKd (Inadl_3, Q8NI35): 4.11; pKd (PCLO, Q9Y6V0): below the threshold; pKd (SNTA1, Q13424): 4.23; pKd (IL16_1, Q14005): 4.17; pKd (Inadl_9, Q8NI35): 3.72	PDGQCTVTEV [RNF146, Q9NTX7]
4.1	5.7	3.62	3.73	below the threshold	4.37	4.39	3.62	below the threshold	below the threshold	below the threshold	below the threshold	below the threshold	3.91	below the threshold	below the threshold	3.47	4.3	below the threshold	below the threshold	pKd (SCRIB_2, Q14160): below the threshold; pKd (Inadl_3, Q8NI35): below the threshold; pKd (PCLO, Q9Y6V0): below the threshold; pKd (SNTA1, Q13424): below the threshold; pKd (IL16_1, Q14005): 3.48; pKd (Inadl_9, Q8NI35): 4.17	YYKRPVQEWV [MMP24, Q9Y5R2]
